Series [1] concerns the target T1, alpha-thrombin (Homo sapiens, UniProt P00734;P00734 P00734:328-363,P00734:364-622). In words: flow; reporter with DT-beads (FIG. 2 legend cites SEQ 12 but Table 1 gives SEQ 7); 50 mM Tris pH 7.5, 100 mM NaCl, 2 mM MgCl2, 37 C.
Series [2] has as its target T1, alpha-thrombin. Kind of series: detector in two-step sandwich on nylon membrane with immobilized DT-aptamer, room temperature, 100 uM heparin.
In series [3] the target is T1, alpha-thrombin. In words: flow; reporter with MC-beads, 30 nM thrombin, 37 C; values in figure only.

Results on 3 molecules are retold here after US20020037506, “Aptamer based two-site binding assay” (published 2002).

Regarding TTTTTTGTAGTCACTGGTTGGTGAGGTTGGGTGACTAC (ssDNA) [MC-5'-LNK-F], the binding result with alpha-thrombin [1] is on record as “binds”.

B1: MC-DIMR-F (ssDNA)
DNA: GTAGTCACTGGTTGGTGAGGTTGGGTGACTACTTTTTTCATCAGTGGGTTGGAGTGGTTGGTCACTGATG
modifications: dimer; second half is the MC sequence in reverse order, structure drawn as image only
On to B1, for which the binding result with alpha-thrombin [2] is “binds”.

On to TTTTTGCTTAGTCCGTGGTAGGGCAGGTTGGGGTGACTAAGC (ssDNA) [DT-5'-LNK-F], for which the binding result in the series with alpha-thrombin [3] is “binds”.
